Positions count from the first letter of the chain named. Names and notes keep the numbering of the source.
B1: F849C.8D10 (antibody, human IgG4 S228P, kappa, V domains shown)
VH: QVQLQQTGAELVKPGASVKLSCKASGYTFTSYWINWVKQRPGQGLEWIGNIYPGSSSIYYSEKFKSKATLTVDTSSSTAYMQLSSLTSDDSAVYYCARWGYWGQGTTLTVSS
VL: DVLMTQTPLSLPVSLGDQASISCRSSQDIVHSSGNTYLEWYLQKPGQSLKLLIYKVSNRFSGVPDRFSASGSGTDFTLKISRVEAEDLGVYYCFQGSHVPPTFGSGTKLEIKR
notes: also called 849.8D10
B2: F847C.26F5 (antibody, human IgG4 S228P, kappa)
heavy: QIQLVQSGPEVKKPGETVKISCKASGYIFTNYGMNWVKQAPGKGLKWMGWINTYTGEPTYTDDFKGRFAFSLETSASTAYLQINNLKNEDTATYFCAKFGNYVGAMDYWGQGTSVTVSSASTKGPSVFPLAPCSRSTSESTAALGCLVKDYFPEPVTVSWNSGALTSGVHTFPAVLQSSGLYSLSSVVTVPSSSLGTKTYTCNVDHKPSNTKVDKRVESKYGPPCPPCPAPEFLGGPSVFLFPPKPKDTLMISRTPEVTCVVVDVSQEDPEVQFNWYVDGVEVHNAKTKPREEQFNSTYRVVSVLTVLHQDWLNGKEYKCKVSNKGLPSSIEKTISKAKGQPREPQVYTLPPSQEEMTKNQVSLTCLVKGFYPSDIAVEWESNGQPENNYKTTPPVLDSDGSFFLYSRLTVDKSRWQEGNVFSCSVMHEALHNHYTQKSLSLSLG
light: EIKMNQSPSSLSASLGDTITITCHASQNINVWLSWYQQKPGNIPKLLIYKASNLHTGVPSRFSGSGSGTGFTLTISSLQPEDIATYYCQQGQSYPYTFGGGTKLELKRTVAAPSVFIFPPSDEQLKSGTASVVCLLNNFYPREAKVQWKVDNALQSGNSQESVTEQDSKDSTYSLSSTLTLSKADYEKHKVYACEVTHQGLSSPVTKSFNRGEC
notes: also called 847.26F5
B3: F846C.2H3 (antibody, human IgG4 S228P, kappa, V domains shown)
VH: QIQLVQSGPELKKPGETVKISCKASGYTFTNYGMNWVKQAPGKGLKWMGWINTYTGEPSYADDFKGRFAFSLETSASTAYLQINNLKNEDMATYFCARWGGYDGDYYAMDYWGQGTSVTVSS
VL: NIMMTQSPSSLAVSAGEKVTMSCKSSQSVLYSSNQKNYLAWYQQKPGQSPKLLIYWASTRESGVPDRFTGSGSGTDFTLTISSVQPEDLAVYYCHQYLSSLTFGAGTKLELKR
notes: also called 846.2H3
B4: F846TC.16B5 (antibody, human IgG4 S228P, kappa, V domains shown)
VH: B3 VH with S59A
VL: B3 VL with P86A
notes: also called 846T.16B5
B5: F849C.8H3 (antibody, human IgG4 S228P, kappa, V domains shown)
VH: QVTLKESGPGILQPSQTLSLTCSFSGFSLSTFGMGVGWIRQPSGKGLEWLAHIWWDDDKHYNPALKSRLTISKDTSKNQVFLRIANVDTADNATYYCARIDYGDYVGFAYWGQGTLVTVSA
VL: DIGMRQAAFSNPVTLGTSASISCRSSKSLLYSNGITYLYWFLQKPGQSPQLLIYQMSNLASGVPDRFSSSGSGTDFTLRISRVEADDVGVYYCAQNLELPWTFGGGTKLEIKR
B6: F846C.1H12 (antibody, human IgG4 S228P, kappa, V domains shown)
VH: B3 VH with Y32F, M91I, D103A
VL: B3 VL with E17Q, N34S, T69S
notes: also called 846.1H12
B7: F846TC.7F10 (antibody, human IgG4 S228P, kappa, V domains shown)
VH: EVQLVESGGDLVKPGGSLKLSCAASGFTFSNYGLSWIRQTPDKRLEWVATISSGGSYTYYPDSVKGRFTISRDSAKNTLYLQMSSLKSEDTAMYYCARHAHYYGVSPYYFDYWGQGTCLTVSS
VL: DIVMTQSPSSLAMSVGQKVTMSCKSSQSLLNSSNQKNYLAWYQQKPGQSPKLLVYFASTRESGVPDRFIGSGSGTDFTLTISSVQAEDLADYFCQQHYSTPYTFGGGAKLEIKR
notes: also called 846T.7F10
B8: F846C.1H5 (antibody, human IgG4 S228P, kappa, V domains shown)
VH: EVQLLESGGGLVKPGGSLKLSCAASGFTFSSYAMSWVRQTPEKRLEWVASISSGGDTYYPDSVKGRFTISRDNARNILYLQMSSLRSEDTAMYYCASYGNSLFDYWGQGTTLTVSS
VL: DVVMTQTPLSLPVSLGDQASISCRSSQSLVHNSGNTYLHWYLQRPGQSPNLLIYKVSNRFSGVPDRFSGSGSGTDFTLKISRVAAEDLGVYFCSQSTHVPPTFGGGTKLEIKR

Each binder was assayed against T1, human Galectin-3 (Gal3), full-length recombinant (human, UniProt P17931 2-250) (assay: blocking ELISA, Gal3 coated, TREM2-His).
T1 construct: treated here as one molecule; also called hGAL3; hGal3
T1 sequence (P17931 2-250 limits assumed): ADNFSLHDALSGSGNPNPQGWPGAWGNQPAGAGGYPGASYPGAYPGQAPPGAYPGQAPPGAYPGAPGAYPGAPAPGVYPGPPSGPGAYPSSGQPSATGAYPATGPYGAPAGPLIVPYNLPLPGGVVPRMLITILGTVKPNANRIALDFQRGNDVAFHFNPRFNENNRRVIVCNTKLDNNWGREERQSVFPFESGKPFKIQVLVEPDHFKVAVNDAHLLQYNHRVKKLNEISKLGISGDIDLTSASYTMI
Method: The plate was incubated for an hour at room temperature with gentle rocking. Thereafter, the plate was washed three times with PBST. Anti-6× His tag antibody-HRP (Abcam, ab1269) was then added to the wells at 1:3000 dilution in 2% BSA in PBST. The plate was incubated at room temperature for an hour with gentle rocking and then washed three times with PBST.
For B1, the “% blocking of Gal3-TREM2 binding” value was greater than 90%.
For B2, the “% blocking of Gal3-TREM2 binding” value was less than 47%.
With B3 the “% blocking of Gal3-TREM2 binding” value was greater than 90%.
In the case of B4, the “% blocking of Gal3-TREM2 binding” value is reported as greater than 90%.

What follows are binders tested against T1, human Galectin-3 (Gal3), full-length … (assay: blocking ELISA, Gal3 coated, biotin-Abeta42 peptide).
B1 was tested, and the “% blocking of Gal3-Abeta42 peptide binding” value was greater than 90%.
B3 was tested, and the “% blocking of Gal3-Abeta42 peptide binding” value was greater than 90%.
With B4 the “% blocking of Gal3-Abeta42 peptide binding” value was greater than 90%.

The binders below were run against T1, human Galectin-3 (Gal3), full-length … (assay: blocking ELISA, Gal3 coated, biotin-APP695).
B5 was tested, and the “% blocking of Gal3-APP695 binding” value was greater than 90%.
With B1 the “% blocking of Gal3-APP695 binding” value was greater than 90%.
For B2, the “% blocking of Gal3-APP695 binding” value was 87%.
For B6, the “% blocking of Gal3-APP695 binding” value was greater than 90%.
B3 was tested, and the “% blocking of Gal3-APP695 binding” value was greater than 90%.
With B4 the “% blocking of Gal3-APP695 binding” value was greater than 90%.

These binders were tested against T1, human Galectin-3 (Gal3), full-length … (assay: not stated. Exponent is printed without a minus sign; value taken as a negative power of ten because the column is a KD in M).
In the case of B1, the Kd is reported as 3.75 nM.
For B7, the Kd was 1.4 nM.
B8 gave a Kd of 3.41 nM.
B2 showed a Kd of 20.9 nM.
B6 gave a Kd of 0.622 nM.
With B3 the Kd was 1.72 nM.
B4 showed a Kd of 0.927 nM.

What follows are binders tested against T1, human Galectin-3 (Gal3), full-length … (assay: blocking ELISA, Gal3 coated, biotin-TLR4).
For B1, the “% blocking of Gal3-TLR4 binding” value was greater than 90%.
With B3 the “% blocking of Gal3-TLR4 binding” value was greater than 90%.
With B4 the “% blocking of Gal3-TLR4 binding” value was greater than 90%.

From patent US20250145722A1 (TRUEBINDING, published 2025)
